Laboratory results as given in paper PMC10878793.
Blank lines part the entries; values can stand above or below the molecule they belong to.

How the values were obtained:
[1] = biological target: human cytochrome b5 T70C, unlabeled (human) (UniProt P00167); experiment: SDS-PAGE with and without reducing agent; purified b5 variant run with or without β-mercaptoethanol (10%, v/v) or DTT; monomer at 17 kDa, dimer at 34 kDa; disulfide-linked dimer
[2] = biological target: human cytochrome b5 K24C, unlabeled (human) (UniProt P00167); experiment: as above
[3] = biological target: previously constructed Alexa 488-T70C-b5 (ref. 19; nonspecifically labelled) (human) (UniProt P00167); experiment: as above
[4] = biological target: cytochrome P450 17A1 (Homo sapiens) (UniProt P05093); experiment: surface plasmon resonance; conditions: cited from earlier work
[5] = biological target: P450 17A1 peptide (putative b5 binding site of P450 17A1) (human); experiment: fluorescence polarisation; competition: nonlabeled WT b5 at various concentrations added to the complex of Alexa 488-b5 K77C (10 nM) and P450 17A1 peptide (100 μM)
[6] = biological target: P450 17A1 peptide (putative b5 binding site of P450 17A1) (human); experiment: fluorescence polarisation; competition: nonlabeled WT b5 at various concentrations added to the complex of Alexa 488-b5 T70C (10 nM) and P450 17A1 peptide (100 μM)
[7] = biological target: Alexa 488-labeled human cytochrome b5 T70C (singly labelled at Cys-70, this paper) (human) (UniProt P00167); experiment: fluorescence polarisation; P450 17A1 protein or P450 17A1 peptide added to Alexa 488-labeled b5 variant (10 nM) in 1 mM potassium phosphate buffer, pH 7.4, 384-well plate, 50 μl; anisotropy fitted with a quadratic equation
[8] = biological target: Alexa 488-labeled human cytochrome b5 K77C (human) (UniProt P00167); experiment: as above

- stoichiometry N [1]: 2
Molecule: human cytochrome b5 T70C, unlabeled (from UniProt P00167 1-134) (natural protein)

- stoichiometry N [2]: 2
Molecule: human cytochrome b5 K24C, unlabeled (from UniProt P00167 1-134) (natural protein)

- stoichiometry N [3]: 2
Molecule: previously constructed Alexa 488-T70C-b5 (ref. 19; nonspecifically labelled) (from UniProt P00167 1-134) (natural protein)

Molecule: cytochrome b5 (from UniProt P00167)
- Kd [4]: 440 nM

- IC50 [5]: 223 nM
- IC50 [6]: 129 nM
Molecule: human cytochrome b5, WT, nonlabeled (from UniProt P00167 1-134) (natural protein)

- Kd [7]: 113 µM
- Kd [8]: 52 µM
Molecule: RNRLLLLEATIR [P450 17A1 peptide (putative b5 binding site of P450 17A1)]

- Kd [7]: 0.379 µM
- Kd [8]: 0.125 µM
B1: human cytochrome P450 17A1 (steroid 17α-hydroxylase/17,20-lyase) (enzyme)
chain: MWELVALLLLTLAYLFWPKRRCPGAKYPKSLLSLPLVGSLPFLPRHGHMHNNFFKLQKKYGPIYSVRMGTKTTVIVGHHQLAKEVLIKKGKDFSGRPQMATLDIASNNRKGIAFADSGAHWQLHRRLAMATFALFKDGDQKLEKIICQEISTLCDMLATHNGQSIDISFPVFVAVTNVISLICFNTSYKNGDPELNVIQNYNEGIIDNLSKDSLVDLVPWLKIFPNKTLEKLKSHVKIRNDLLNKILENYKEKFRSDSITNMLDTLMQAKMNSDNGNAGPDQDSELLSDNHILTTIGDIFGAGVETTTSVVKWTLAFLLHNPQVKKKLYEEIDQNVGFSRTPTISDRNRLLLLEATIREVLRLRPVAPMLIPHKANVDSSIGEFAVDKGTEVIINLWALHHNEKEWHQPDQFMPERFLNPAGTQLISPSVSYLPFGAGPRSCIGEILARQELFLIMAWLLQRFDLEVPDDGQLPSLEGIPKVVFLIDSFKVKIKVRQAWREAQAEGST
